Test results reported in publication PMC5206724, “Insensitivity to pain induced by a potent selective closed-state Nav1.7 inhibitor” (Scientific Reports, 2017).

Key:
human Nav1.1 (human) = human Nav1.1 (human) (UniProt P35498)
human Nav1.2 (human) = human Nav1.2 (human) (UniProt Q99250)
human Nav1.3 (human) = human Nav1.3 (human) (UniProt Q9NY46)
human Nav1.4 (human) = human Nav1.4 (human) (UniProt P35499)
human Nav1.5 (human) = human Nav1.5 (human) (UniProt Q14524)
human Nav1.6 (human) = human Nav1.6 (human) (UniProt Q9UQD0)

human Nav1.2 (human), sequence (Q99250 whole entry): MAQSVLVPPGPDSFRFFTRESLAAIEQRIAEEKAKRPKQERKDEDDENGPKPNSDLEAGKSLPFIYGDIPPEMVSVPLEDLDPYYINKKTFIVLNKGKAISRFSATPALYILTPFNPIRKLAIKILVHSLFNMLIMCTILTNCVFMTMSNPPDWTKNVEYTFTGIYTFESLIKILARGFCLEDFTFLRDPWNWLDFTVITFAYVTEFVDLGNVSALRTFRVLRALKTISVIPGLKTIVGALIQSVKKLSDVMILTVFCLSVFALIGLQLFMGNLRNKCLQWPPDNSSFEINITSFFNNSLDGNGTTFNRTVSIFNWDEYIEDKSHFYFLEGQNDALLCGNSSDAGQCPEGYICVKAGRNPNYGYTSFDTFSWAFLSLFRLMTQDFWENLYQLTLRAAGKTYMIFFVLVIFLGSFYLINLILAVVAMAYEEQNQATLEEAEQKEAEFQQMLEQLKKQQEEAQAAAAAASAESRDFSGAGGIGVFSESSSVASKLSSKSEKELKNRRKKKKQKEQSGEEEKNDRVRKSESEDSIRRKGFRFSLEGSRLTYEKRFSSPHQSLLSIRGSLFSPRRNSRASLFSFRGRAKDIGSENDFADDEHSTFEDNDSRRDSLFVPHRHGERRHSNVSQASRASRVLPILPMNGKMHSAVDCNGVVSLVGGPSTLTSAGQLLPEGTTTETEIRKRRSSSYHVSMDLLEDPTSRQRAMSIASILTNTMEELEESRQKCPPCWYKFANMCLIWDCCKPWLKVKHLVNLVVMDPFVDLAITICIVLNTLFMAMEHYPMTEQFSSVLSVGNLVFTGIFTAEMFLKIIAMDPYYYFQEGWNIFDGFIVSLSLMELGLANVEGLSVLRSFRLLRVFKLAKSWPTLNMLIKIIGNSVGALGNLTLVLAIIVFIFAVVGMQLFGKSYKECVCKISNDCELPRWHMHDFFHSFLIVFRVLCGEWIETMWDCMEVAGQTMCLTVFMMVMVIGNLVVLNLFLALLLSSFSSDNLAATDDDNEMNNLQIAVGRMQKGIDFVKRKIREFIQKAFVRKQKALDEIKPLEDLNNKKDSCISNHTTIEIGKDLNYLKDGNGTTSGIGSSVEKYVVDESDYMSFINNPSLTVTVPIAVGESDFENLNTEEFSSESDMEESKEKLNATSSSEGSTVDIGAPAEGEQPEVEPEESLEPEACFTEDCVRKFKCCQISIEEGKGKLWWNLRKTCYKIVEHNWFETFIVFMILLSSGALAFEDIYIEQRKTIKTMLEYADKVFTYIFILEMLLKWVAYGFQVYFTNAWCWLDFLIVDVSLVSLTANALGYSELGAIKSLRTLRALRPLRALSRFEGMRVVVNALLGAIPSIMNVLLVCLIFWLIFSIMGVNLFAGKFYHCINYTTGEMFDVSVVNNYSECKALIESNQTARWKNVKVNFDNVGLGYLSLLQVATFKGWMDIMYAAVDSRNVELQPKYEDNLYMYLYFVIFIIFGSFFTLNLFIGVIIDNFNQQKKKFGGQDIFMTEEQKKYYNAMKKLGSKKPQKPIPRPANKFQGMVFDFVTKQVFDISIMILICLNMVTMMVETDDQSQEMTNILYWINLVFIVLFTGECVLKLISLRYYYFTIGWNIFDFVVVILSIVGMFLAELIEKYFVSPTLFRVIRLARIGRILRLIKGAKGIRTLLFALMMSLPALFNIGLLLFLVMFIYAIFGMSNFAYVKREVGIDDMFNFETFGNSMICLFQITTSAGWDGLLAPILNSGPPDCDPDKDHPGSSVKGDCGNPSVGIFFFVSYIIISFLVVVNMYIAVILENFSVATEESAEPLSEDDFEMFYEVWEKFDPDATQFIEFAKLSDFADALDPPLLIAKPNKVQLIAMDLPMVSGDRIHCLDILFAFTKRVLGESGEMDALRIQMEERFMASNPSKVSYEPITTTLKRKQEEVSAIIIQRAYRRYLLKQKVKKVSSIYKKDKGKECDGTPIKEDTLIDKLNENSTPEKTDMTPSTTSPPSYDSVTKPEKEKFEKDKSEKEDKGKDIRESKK
Protoxin-II (β/ω-theraphotoxin-Tp2a), sequence (P83476 whole entry): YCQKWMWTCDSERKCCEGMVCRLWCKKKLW
human Nav1.3 (human), sequence (Q9NY46 whole entry): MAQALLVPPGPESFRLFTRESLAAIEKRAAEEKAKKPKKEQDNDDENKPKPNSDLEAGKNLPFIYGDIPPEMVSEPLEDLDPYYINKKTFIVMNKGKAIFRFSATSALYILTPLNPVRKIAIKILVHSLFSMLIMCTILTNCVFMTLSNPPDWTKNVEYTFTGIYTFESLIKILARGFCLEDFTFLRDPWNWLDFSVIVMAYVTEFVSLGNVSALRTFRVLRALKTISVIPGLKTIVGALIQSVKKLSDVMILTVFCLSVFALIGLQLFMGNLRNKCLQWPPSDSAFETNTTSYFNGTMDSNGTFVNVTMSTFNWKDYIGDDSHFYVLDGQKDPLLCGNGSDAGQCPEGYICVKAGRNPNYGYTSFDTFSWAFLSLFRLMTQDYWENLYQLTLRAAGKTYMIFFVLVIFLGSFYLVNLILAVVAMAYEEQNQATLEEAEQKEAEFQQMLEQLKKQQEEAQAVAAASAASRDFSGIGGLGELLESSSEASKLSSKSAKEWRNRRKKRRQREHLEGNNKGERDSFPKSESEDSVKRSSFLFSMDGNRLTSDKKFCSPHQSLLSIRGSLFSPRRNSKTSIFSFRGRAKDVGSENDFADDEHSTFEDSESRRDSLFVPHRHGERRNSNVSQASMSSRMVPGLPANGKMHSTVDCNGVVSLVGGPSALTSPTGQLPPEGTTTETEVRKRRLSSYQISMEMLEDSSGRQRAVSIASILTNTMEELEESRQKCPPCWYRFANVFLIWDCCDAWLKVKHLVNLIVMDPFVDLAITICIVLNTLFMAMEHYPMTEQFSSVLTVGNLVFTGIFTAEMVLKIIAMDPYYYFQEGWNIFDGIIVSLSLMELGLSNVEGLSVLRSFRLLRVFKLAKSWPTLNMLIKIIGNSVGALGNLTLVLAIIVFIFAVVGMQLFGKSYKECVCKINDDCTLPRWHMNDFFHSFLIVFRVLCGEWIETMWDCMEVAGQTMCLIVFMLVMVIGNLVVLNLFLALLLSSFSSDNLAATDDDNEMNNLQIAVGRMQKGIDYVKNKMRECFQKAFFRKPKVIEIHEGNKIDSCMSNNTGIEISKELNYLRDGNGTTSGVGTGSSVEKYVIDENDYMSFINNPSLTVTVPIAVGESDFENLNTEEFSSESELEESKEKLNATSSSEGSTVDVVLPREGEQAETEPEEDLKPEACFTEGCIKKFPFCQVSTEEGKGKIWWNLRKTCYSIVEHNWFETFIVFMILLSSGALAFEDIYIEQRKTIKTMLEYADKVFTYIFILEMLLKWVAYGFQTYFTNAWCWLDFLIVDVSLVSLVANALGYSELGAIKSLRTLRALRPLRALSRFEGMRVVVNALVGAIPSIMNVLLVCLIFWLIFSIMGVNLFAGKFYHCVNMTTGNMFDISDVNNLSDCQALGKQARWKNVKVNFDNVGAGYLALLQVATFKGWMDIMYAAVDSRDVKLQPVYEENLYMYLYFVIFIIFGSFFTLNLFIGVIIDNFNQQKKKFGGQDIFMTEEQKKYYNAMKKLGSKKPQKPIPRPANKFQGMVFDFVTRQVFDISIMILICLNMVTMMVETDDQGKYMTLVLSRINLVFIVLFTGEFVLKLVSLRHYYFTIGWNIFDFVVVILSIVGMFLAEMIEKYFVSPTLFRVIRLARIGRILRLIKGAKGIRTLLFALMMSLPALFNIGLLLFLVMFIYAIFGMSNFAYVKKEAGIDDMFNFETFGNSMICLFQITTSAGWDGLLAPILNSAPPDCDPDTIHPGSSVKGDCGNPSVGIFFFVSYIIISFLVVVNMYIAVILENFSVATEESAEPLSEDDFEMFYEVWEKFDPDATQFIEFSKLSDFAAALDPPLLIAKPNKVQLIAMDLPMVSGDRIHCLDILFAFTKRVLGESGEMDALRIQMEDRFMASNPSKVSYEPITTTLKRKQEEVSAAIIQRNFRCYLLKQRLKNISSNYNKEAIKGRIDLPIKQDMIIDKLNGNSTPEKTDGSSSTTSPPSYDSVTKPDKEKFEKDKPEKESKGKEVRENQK

With “Protoxin-II (β/ω-theraphotoxin-Tp2a) (from UniProt P83476 1-30) (peptide)” the pIC50 of inhibition of sodium current, automated patch clamp (QPatch); fitted Emax 100 % (human Nav1.1 (human)) was 7.8 -log10(IC50), the pIC50 of inhibition of sodium current, automated patch clamp (QPatch); fitted Emax 100 % (human Nav1.2 (human)) was 7.1 -log10(IC50) and the pIC50 of inhibition of sodium current, automated patch clamp (QPatch); fitted Emax 100 % (human Nav1.3 (human)) was 7.6 -log10(IC50). For the same substance, the pIC50 of inhibition of sodium current, automated patch clamp (QPatch); fitted Emax 100 % (human Nav1.4 (human)) was 7.1 -log10(IC50), the pIC50 of inhibition of sodium current, automated patch clamp (QPatch); fitted Emax 100 % (human Nav1.5 (human)) was 6.4 -log10(IC50) and the pIC50 of inhibition of sodium current, automated patch clamp (QPatch); fitted Emax 100 % (human Nav1.6 (human)) was 7.5 -log10(IC50).
